Key:
[1] = target: T1, CD4 on the surface of human T cells (human, UniProt P01730 26-458); experiment: affinity column selection of cells from apheresis by the CD4 marker
T1 construct: whole, on cells; also called selection marker CD4

[2] = target: T2, Strep-tactin M2 (streptavidin mutein) immobilised on the chromatography resin (Streptomyces avidinii, UniProt P22629 38-163); experiment: loading of the tagged Fab on Strep-tactin Sephadex G50, 20 min at 4 C
T2 construct: also called immobilized Strep-tactin; STREP-TACTIN-coated resin

binding result [1]: binds
binding result [2]: binds
B1: anti-CD4 Fab fragment m13B8.2 with Twin Strep-Tag (Fab, V domains shown)
VH: QVQLKQSGPGLVQPSQSLSITCTVSGFSLTTFGVHWVRQSPGKGLEWLGVIWASGITDYNVPFMSRLSITKDNSKSQVFFKLNSLQPDDTAIYYCAKNDPGTGFAYWGQGTLVTVSA
VL: DIQMTQSPASLSASVGETVTFTCRASEMIYSYLAWYQQKQGKSPQLLVHDAKTLAEGVPSRFSGGGSGTQFSLKINTLQPEDFGTYYCQAHYGNPPTFGGGTKLEIKR

Reference: US20250283037A1 (JUNO THERAPEUTICS, published 2025)
